According to patent US20230331821A1 (VIR BIOTECHNOLOGY, published 2023):
Where two headings read alike, the source gives them in different places.

How the values were obtained:
[1] = molecular target: T1, SARS-CoV-2 RBD (produced in house in Expi-CHO cells; residues 331-550 of spike) (SARS-CoV-2 BetaCoV/Wuhan-Hu-1/2019, UniProt P0DTC2 331-550); test: ELISA, antigen coated on the plate, OD 405 nm
[2] = molecular target: T1, SARS-CoV-2 RBD (produced in house in …); test: ELISA, antigen coated on the plate, OD 405 nm; remark: listed apart in the source
[3] = molecular target: T2, SARS-CoV-2 Spike (S) protein, strain BetaCoV/Wuhan-Hu-1/2019, full length (SARS-CoV-2 Wuhan-Hu-1, UniProt P0DTC2 14-1273); test: cell-based or functional assay
[4] = molecular target: T2, SARS-CoV-2 Spike (S) protein, strain …
[5] = molecular target: His-tagged RBD of SARS-CoV-2 (SARS-CoV-2 BetaCoV/Wuhan-Hu-1/2019, UniProt P0DTC2 331-550)
[6] = molecular target: His-tagged RBD of SARS-CoV-1 (SARS-CoV-1, UniProt P59594 306-527)
[7] = molecular target: T1, SARS-CoV-2 RBD (produced in house in …); test: BLI (Octet), antibody on protein A sensors, RBD in solution, global fit
[8] = molecular target: T3, SARS-CoV-1 RBD (Sino Biological) (SARS-CoV-1, UniProt P59594 306-527); test: as above
[9] = molecular target: T2, SARS-CoV-2 Spike (S) protein, strain …; test: flow cytometry, ExpiCHO cells expressing SARS-CoV-2 S; % positive cells
[10] = molecular target: SARS-CoV-1 Spike (S) protein, strain SARS, on ExpiCHO cells (SARS-CoV (SARS-CoV-1), strain SARS, UniProt P59594 14-1255); test: flow cytometry, ExpiCHO cells expressing SARS-CoV-1 S; % positive cells
[11] = molecular target: T1, SARS-CoV-2 RBD (produced in house in …); test: ELISA, antigen coated on the plate, OD 405 nm; remark: listed apart in the source
[12] = molecular target: T3, SARS-CoV-1 RBD (Sino Biological); test: ELISA, antigen coated on the plate, OD 405 nm
[13] = molecular target: T1, SARS-CoV-2 RBD (produced in house in …); test: ELISA, antigen coated on the plate, OD 405 nm; remark: listed apart in the source
[14] = molecular target: T3, SARS-CoV-1 RBD (Sino Biological); test: ELISA, antigen coated on the plate, OD 405 nm; remark: listed apart in the source
[15] = molecular target: T1, SARS-CoV-2 RBD (produced in house in …); test: ELISA, antigen coated on the plate, OD 405 nm; remark: listed apart in the source
[16] = molecular target: T1, SARS-CoV-2 RBD (produced in house in …); test: ELISA, antigen coated on the plate, OD 405 nm; remark: listed apart in the source
[17] = molecular target: T4, SARS-CoV-1 RBD (Sino Biological) (SARS-CoV-1, UniProt P59594 306-527); test: ELISA, antigen coated on the plate, OD 405 nm; remark: listed apart in the source
[18] = molecular target: T4, SARS-CoV-1 RBD (Sino Biological); test: ELISA, antigen coated on the plate, OD 405 nm; remark: listed apart in the source

B1: S315 rIgG1-MLNS (antibody, V domains shown)
VH: EVQLVESGGGLVQPGGSLRLSCAASGFTFSNYWMTWVRQAPGKGLEWVANIKQDGSEKYYVDSVKGRFTISRDNAKNSLYLQMNSLRAEDTAVYYCARDLWWNDQAHYYGMDVWGQGTTVTVSS
VL: SYELTQPPSVSVSPGQTARITCSGDAFPNQYAYWYQQKPGQAPVMLIYKDSERPSGIPERFFGSSSGTTVTLTIRGVQAEDEADYYCQSADSSGTVFGGGTKLTVL
EC50 (read off the curve) [1]: ~0.2 µg/mL | EC50 (read off the curve) [2]: ~0.2 µg/mL

B2: SARS-CoV-2 S308 mAb (B cell supernatant) (antibody, V domains shown)
VH: QVQLVESGGGVVQPGRSLRLSCAASRFTFSSYGMHWVRQAPGKGLEWVAVIWHDGNNKHYGDSVKGRVTISRDNSKNTLYLQMTSLRAEDTAVYYCARAVTTFKGSGRARMRGMDVWGQGTTVTVSS
VL: DIQLTQSPSFLSASVGDRVTITCRASQGINTYLAWYQQKPGKAPKLLIYAASTLQSGVPSRFSGSGSGTEFTLTISSLQPEDFATYYCQHLDTYPFTFGPGTKVDIK
Percent neutralization of infection, dilution 2 [3]: -46% | Percent neutralization of infection, dilution 6 [3]: 19% | Percent neutralization of infection, dilution 18 [3]: 32% | Percent neutralization of infection, dilution 54 [3]: 16%

B3: SARS-CoV-2 S303 mAb (B cell supernatant) (antibody, V domains shown)
VH: EVQLVESGGGLVKPGGSLRLSCAASGFTFLTYSMNWVRQTPGKRLQWVSAISGSGGATYYADSVKGRFTISRDNSKNTLYLQMNTVTADDTAIYFCARERDDIFPMGLNAFDIWGQGAMVIVSS
VL: DIQMTQSPSTLSASVGDRVTITCRASQSISNWLAWYQQKPGKAPKLLIYKASSLESGVPSRFSGSGSGTEFTLTISSLQPDDSATYYCQQYDTYSWTFGQGTKVEIK
Percent neutralization of infection, dilution 2 [3]: 6% | Percent neutralization of infection, dilution 6 [3]: 5% | Percent neutralization of infection, dilution 18 [3]: 2% | Percent neutralization of infection, dilution 54 [3]: 12%

B4: S303 rIgG1 (antibody, V domains shown)
VH: B3 VH
VL: B3 VL
EC50 [4]: 0.383 µg/mL | Kd [5]: 23.6 nM | Kd [6]: < 0.001 nM | Kd [7]: 23.6 nM | Kd [8]: < 0.001 nM | EC50 (read off the curve) [9]: ~0.4 µg/mL | EC50 (read off the curve) [10]: ~0.001 µg/mL

B5: S303-rIgG1-LS (antibody, V domains shown)
VH: B3 VH
VL: B3 VL
EC50 (read off the curve) [11]: ~0.09 µg/mL | EC50 (read off the curve) [12]: ~0.03 µg/mL | EC50 (read off the curve) [13]: ~0.09 µg/mL | EC50 (read off the curve) [14]: ~0.03 µg/mL

B6: SARS-CoV-2 S304 mAb (B cell supernatant) (antibody, V domains shown)
VH: EVQLVESGGGLVQPGGSLRLSCAASGFTFSSYDMHWVRQTTGKGLEWVSTIGTAGDTYYPDSVKGRFTISREDAKNSLYLQMNSLRAGDTAVYYCARGDSSGYYYYFDYWGQGTLLTVSS
VL: DIQMTQSPSSLSAAVGDRVTITCRASQSIGSYLNWYQQKPGKAPKLLIYAASSLQSGVPSRFSGSGSGTDFTLTISSLQPEDFAIYYCQQSYVSPTYTFGPGTKVDIK
Percent neutralization of infection, dilution 2 [3]: -21% | Percent neutralization of infection, dilution 6 [3]: 25% | Percent neutralization of infection, dilution 18 [3]: -22% | Percent neutralization of infection, dilution 54 [3]: 7%

B7: S304-rIgG1-LS (antibody, V domains shown)
VH: B6 VH
VL: B6 VL
EC50 (read off the curve) [15]: ~0.1 µg/mL | EC50 (read off the curve) [16]: ~0.1 µg/mL

B8: S110 (antibody, V domains shown)
VH: QVQLVESGGGLVQAGGSLRLSCAASGRTFSSAGMAWFRQAPGKEREFVATSNWNGGDTDYADSVKGRFTISRDNAKNTVYLQMNNLKPEDTAVYYCAAHLQKYGGDYYARIWGQGTQVTVS
EC50 (read off the curve) [17]: ~0.08 µg/mL | EC50 (read off the curve) [18]: ~0.08 µg/mL

B9: S310 (antibody, V domains shown)
VH: QVQLVQSGAELKKPGSSVKVSCKASGGTFNSYSFNWVRQAPGQGLEWLGGIIPVLGTSNYAQKFQGRVAVTADEFTTTAYMELSSLRSEDTAVYYCATRTYDSSGYRPYYYGLDVWGQGTPVTVSS
VL: QSALTQPASVSGSPGQSITISCTGTSSDVGSYNLVSWYQQRPGKAPELMIYEVTKRPSGLSNRFSGSKSGNTASLTISGLQAEDEADYYCCSYAGSDTVIFGGGTKVTVL
EC50 (read off the curve) [10]: ~0.2 µg/mL

B10: SARS-CoV-2 S306 mAb (B cell supernatant) (antibody, V domains shown)
VH: QVQLVQSGAEVKKPGASVKVSCKASTYTFTSFGISWVRQAPGQGLEWMGWITTYSGDTNYAQKFQGRVTMTTDTSTNTAYMELRSLRSDDTAVYYCASDYFDSSGYYHSFDYWGQGTLVTVSS
VL: EIVLTQSPDTLSLSPGERATLSCRASQSVSSYLAWYQQRPGQAPRLLIYDASKRATGIPARFSGSGSGTDFTLTISSLEPEDFAVYYCQQRSNWPPGCSFGQGTKVEIK
Percent neutralization of infection, dilution 2 [3]: -19% | Percent neutralization of infection, dilution 6 [3]: 15% | Percent neutralization of infection, dilution 18 [3]: -9% | Percent neutralization of infection, dilution 54 [3]: 6%

B11: S306 (antibody, V domains shown)
VH: B10 VH
VL: B10 VL
EC50 (read off the curve) [10]: ~0.02 µg/mL
